Here are results for two molecules from PMC12357932 (Nature Communications, 2025).

In data set [1] the target is ExsF with the first 23 residues replaced by an N-terminal 6xHis tag (B. paranthracis). Description: crystal structure.
The data set “crystal structure” concerns the molecule itself. Description: crystal structure.

The stoichiometry N is a count of units in the complex or per binding partner.

“ExsF with the first 23 residues replaced by an N-terminal 6xHis tag (domain or fragment)” displayed a stoichiometry N in data set [1] of 3.

B1: C-terminal domain of F-BclA (F-BclA-CTD; BTK_RS34675 residues 721-863) (domain or fragment)
chain: MHHHHHHSVGLTNYLYVFDTTNQSIAVGSSVTFNTNGPITGTALSHITGTGNIIINTLGTYVAEFQLQASRENQFSLELNGTPIPGGRFGTGSPHSINQGTAAFTVTVVPSTLTLINNTSSAGTITLSNSDGGSLTNVSASISIFQVG
On to B1, for which, in the data set “crystal structure”, the “stoichiometry N” value worked out at 3.
